Measured values as given in PMC4466232.

Columns and labels:
[1] = target: MVM capsid protein VP2 (stably expressed in human fibroblasts, HF-VPs) (Minute Virus of Mice, prototype strain (MVMp)); experiment: cross-linking; clarified cell homogenates in HNEM buffer (50 mM Hepes pH 8.0, 150 mM NaCl, 2 mM MgCl2, 1 mM EDTA) cross-linked with 10 mM dimethyl suberimidate (DMS), 10 min at 20°C; 5% SDS-PAGE and Western blot with the α-VPs antibody; MF-VPs quiescent by serum starvation (G0) or 8 h after serum addition (S); HF-VPs at hours after release of density arrest (G1)
[2] = target: MVM capsid protein VP2 (stably expressed in mouse fibroblasts, MF-VPs) (Minute Virus of Mice, prototype strain (MVMp)); experiment: as above

Substance | stoichiometry N [1] | stoichiometry N [2]
MVM capsid protein VP2 (stably expressed in human fibroblasts, HF-VPs) (natural protein) | 3 | –
MVM capsid protein VP2 (stably expressed in mouse fibroblasts, MF-VPs) (natural protein) | – | 3
